Experimental data: US10975167B2, “Method to reduce pulmonary arterial hypertension by administering inhibitors of nicotinamide phosphoribotransferase” (Arizona Board of Regents on Behalf of the University of …, priority 2017, dated 2021)

Assays:
human lung SMC = assay: BrdU proliferation of human lung SMC exposed to recombinant NAMPT; type: cell-based; details: 1, 5, 20 μg/ml
Description: Cell proliferation was determined using either a 5-bromo-2′-deoxyuridine (BrdU) incorporation assay or cell counting. BrdU assays (QIA58, Calbiochem, San Diego, Calif.) were performed in a 96-well format according to manufacturer's instructions, using starting cell densities of 4000 cells/well. For cell counting, cells were trypsinized and resuspended after experimental procedures; densities were counted with a TC10™ automated cell counter (Bio-Rad). FBS or PDGF was used as positive controls.

hPASMCs [1] = assay: TUNEL apoptosis assay in hPASMCs; type: cell-based, human; details: H2O2 100 μM + rhNAMPT 20 μg/ml, 24 hrs
Description: hPASMCs were cultured on a coverslip in a 6-well cell culture plate. H2O2 (100 μM, Sigma, Cat. #ab66110) was used as an apoptosis stimulus for hPASMCs.
When cell confluence reached 95%, cells were starved for 3 hrs and stimulated by H2O2, FK866 (10 μM), H2O2+rhNAMPT (20 μg/ml) or H2O2+rhNAMPT (20 μg/ml) with FK866 (10 μM) for 24 hrs. Cell apoptosis was examined using an in situ BrdU-Red DNA fragmentation (TUNEL) kit. The cells on the coverslips were examined using a Nikon Eclipse E800 fluorescence microscope, and the images were processed by MetaMorph software (Molecular Devices, Inc.). Approximately ten images were taken from each condition, and over 500 cells were counted according to DAPI staining.

human lung SMCs = assay: Store-operated Ca2+ entry and STIM2/Orai2 expression in human lung SMCs; type: cell-based; details: 48 hr
Description: Recombinant NAMPT protein (CY-E1251) was obtained from MBL Lifescience. Solubilized protein lysates isolated from lung tissues and cells were used to detect NAMPT, STIM2, ORAI2 and actin as previously described. Cells were lysed in a modified radioimmunoprecipitation assay (mRIPA) lysis buffer with a protease and phosphatase inhibitor cocktail (Sigma Aldrich, St. Louis, Mo.), and protein quantification and Western blot analysis were performed according to standard procedures.
Human Primary Pulmonary Artery Smooth Muscle Cells (hPASMCs) from control and PAH patients were obtained and isolated as previously described from Lonza (CC-2581 and CC-2530) were used for cell transfection and proliferation assays.
[Ca2+]cyt was measured in PASMC loaded with fura-2 (4 mM) in a Nikon digital fluorescent imaging system. Cells were loaded with 4 μM fura-2 acetoxymethyl ester (fura-2/AM) for 60 min at 25° C. and [Ca2+]cyt was measured using a ratiometric method at 32° C. Cyclepiazonic acid (CPA, a specific Ca2+-ATPase inhibitor) was used to induce store-operated calcium entry (SOCE).

hPASMCs [2] = assay: Transwell migration and wound healing assays; type: cell-based, human; details: rhNAMPT 20 μg/ml
Description: For quantitative data from transwell migration assays (ANOVA P<0.05). 50,000 cells were added into Falcon™ Cell Culture Inserts (Fisher, Cat. #08-771-12) with 8-μm pores in 1 ml of basal medium and 250 μl on the top of the transwell. Cells were then stimulated by vehicle, rhNAMPT (20 μg/ml) with or without FK866 (10 μM) for 48 hrs. Unmigrated cells were then scraped from the top of the filter and the migrated bottom layer of cells were stained by 1% aqueous Crystal Violet solution (Electron Microscopy Sciences, Cat. #RT 26088-10). The transwell bottom was gently separated by a blade and put on a glass slide for imaging.
The migrated cells were counted and quantified. Images were taken by an Olympus BX51Fluorescence Microscope and processed by DPController Software (Oylmpus IMS).
In wound healing assays, approximately 0.5 million human Primary Pulmonary Artery Smooth Muscle Cells (hPASMCs) were seeded to 6-well cell culture plates, a straight line was scratched using a 200-μl pipette tip after cells reached 100% confluence. Three dots were labelled beside each line. […]
Image J software was used to measure the wound line width for all the three spots labeled in each line. Wound closure %={[width (start point)-width (end point)]/width (start point)}×100% was calculated (ANOVA P<0.05).

B1: rNAMPT: Recombinant NAMPT protein (CY-E1251) from MBL (protein)
chain: MNPAAEAEFNILLATDSYKVTHYKQYPPNTSKVYSYFECREKKTENSKLRKVKYEETVFYGLQYILNKYLKGKVVTKEKIQEAKDVYKEHFQDDVFNEKGWNYILEKYDGHLPIEIKAVPEGFVIPRGNVLFTVENTDPECYWLTNWIETILVQSWYPITVATNSREQKKILAKYLLETSGNLDGLEYKLHDFGYRGVSSQETAGIGASAHLVNFKGTDTVAGLALIKKYYGTKDPVPGYSVPAAEHSTITAWGKDHEKDAFEHIVTQFSSVPVSVVSDSYDIYNACEKIWGEDLRHLIVSRSTQAPLIIRPDSGNPLDTVLKVLEILGKKFPVTENSKGYKLLPPYLRVIQGDGVDINTLQEIVEGMKQKMWSIENIAFGSGGGLLQKLTRDLLNCSFKCSYVVTNGLGINVFKDPVADPNKRSKKGRLSLHRTPAGNFVTLEEGKGDLEEYGQDLLHTVFKNGKVTKSYSFDEIRKNAQLNIELEAAHH
human lung SMC proliferation (human lung SMC): dose-dependently stimulating | hPASMC apoptosis (TUNEL positive cells) (hPASMCs [1]): inhibits | cyclopiazonic acid (CPA)-mediated store-operated Ca2+ entry (SOCE) (human lung SMCs; 20 μg/ml): augments | expression of Orai2 (human lung SMCs): increases | expression of STIM2 (human lung SMCs): increases | human PASMC migration (hPASMCs [2]): promotes
